Reference: US20240218342A1, “SITE-SPECIFIC GLYCAN REMODELING OF LYSOSOMAL ENZYMES AND APPLICATIONS THEREOF” (priority 2021, published 2024)

Molecular target: Recombinant human IGF-II R (CI-MPR) (Homo sapiens, UniProt P11717)
Test: SPR binding to immobilized CI-MPR
Conditions: 25° C., three independent experiments
Experimental: Surface Plasmon Resonance (SPR) Measurements. SPR measurements were performed on a Biacore T200 instrument (GE Healthcare). Recombinant human IGF-II R (CI-MPR) was purchased from R&D Systems. Approximately 7000 resonance units (RU) of CI-MPR was immobilized on a CM5 sensor chip in a sodium acetate buffer (25 μg/mL, pH 4.0) at 25° C., using the amine coupling kit provided by the manufacturer. Mannose 6-phosphates containing glycopeptides or glycoproteins were determined at 25° C. under a flow rate of 10 μL/min. HBS-P+ buffer (10 mM HEPES, 150 mM NaCl, 0.05% surfactant P20, pH 7.4) was used as sample buffer and running buffer. Association was measured for 3 min and dissociation for 10 min at the same flow rate (10 μL/min). […] Synthetic glycopeptide and glycoprotein analytes flowed over an immobilized chip with 2-fold serial dilution of the highest concentration of 4 μM (for glycopeptides) or 1 μM (for RNase B) or 250 nM (for rhGAA). Kinetic analyses were performed by global fitting of the binding data to a 1:1 Langmuir binding model using BIAcore T200 evaluation software.

Sequence of Recombinant human IGF-II R (CI-MPR) (P11717 41-2491): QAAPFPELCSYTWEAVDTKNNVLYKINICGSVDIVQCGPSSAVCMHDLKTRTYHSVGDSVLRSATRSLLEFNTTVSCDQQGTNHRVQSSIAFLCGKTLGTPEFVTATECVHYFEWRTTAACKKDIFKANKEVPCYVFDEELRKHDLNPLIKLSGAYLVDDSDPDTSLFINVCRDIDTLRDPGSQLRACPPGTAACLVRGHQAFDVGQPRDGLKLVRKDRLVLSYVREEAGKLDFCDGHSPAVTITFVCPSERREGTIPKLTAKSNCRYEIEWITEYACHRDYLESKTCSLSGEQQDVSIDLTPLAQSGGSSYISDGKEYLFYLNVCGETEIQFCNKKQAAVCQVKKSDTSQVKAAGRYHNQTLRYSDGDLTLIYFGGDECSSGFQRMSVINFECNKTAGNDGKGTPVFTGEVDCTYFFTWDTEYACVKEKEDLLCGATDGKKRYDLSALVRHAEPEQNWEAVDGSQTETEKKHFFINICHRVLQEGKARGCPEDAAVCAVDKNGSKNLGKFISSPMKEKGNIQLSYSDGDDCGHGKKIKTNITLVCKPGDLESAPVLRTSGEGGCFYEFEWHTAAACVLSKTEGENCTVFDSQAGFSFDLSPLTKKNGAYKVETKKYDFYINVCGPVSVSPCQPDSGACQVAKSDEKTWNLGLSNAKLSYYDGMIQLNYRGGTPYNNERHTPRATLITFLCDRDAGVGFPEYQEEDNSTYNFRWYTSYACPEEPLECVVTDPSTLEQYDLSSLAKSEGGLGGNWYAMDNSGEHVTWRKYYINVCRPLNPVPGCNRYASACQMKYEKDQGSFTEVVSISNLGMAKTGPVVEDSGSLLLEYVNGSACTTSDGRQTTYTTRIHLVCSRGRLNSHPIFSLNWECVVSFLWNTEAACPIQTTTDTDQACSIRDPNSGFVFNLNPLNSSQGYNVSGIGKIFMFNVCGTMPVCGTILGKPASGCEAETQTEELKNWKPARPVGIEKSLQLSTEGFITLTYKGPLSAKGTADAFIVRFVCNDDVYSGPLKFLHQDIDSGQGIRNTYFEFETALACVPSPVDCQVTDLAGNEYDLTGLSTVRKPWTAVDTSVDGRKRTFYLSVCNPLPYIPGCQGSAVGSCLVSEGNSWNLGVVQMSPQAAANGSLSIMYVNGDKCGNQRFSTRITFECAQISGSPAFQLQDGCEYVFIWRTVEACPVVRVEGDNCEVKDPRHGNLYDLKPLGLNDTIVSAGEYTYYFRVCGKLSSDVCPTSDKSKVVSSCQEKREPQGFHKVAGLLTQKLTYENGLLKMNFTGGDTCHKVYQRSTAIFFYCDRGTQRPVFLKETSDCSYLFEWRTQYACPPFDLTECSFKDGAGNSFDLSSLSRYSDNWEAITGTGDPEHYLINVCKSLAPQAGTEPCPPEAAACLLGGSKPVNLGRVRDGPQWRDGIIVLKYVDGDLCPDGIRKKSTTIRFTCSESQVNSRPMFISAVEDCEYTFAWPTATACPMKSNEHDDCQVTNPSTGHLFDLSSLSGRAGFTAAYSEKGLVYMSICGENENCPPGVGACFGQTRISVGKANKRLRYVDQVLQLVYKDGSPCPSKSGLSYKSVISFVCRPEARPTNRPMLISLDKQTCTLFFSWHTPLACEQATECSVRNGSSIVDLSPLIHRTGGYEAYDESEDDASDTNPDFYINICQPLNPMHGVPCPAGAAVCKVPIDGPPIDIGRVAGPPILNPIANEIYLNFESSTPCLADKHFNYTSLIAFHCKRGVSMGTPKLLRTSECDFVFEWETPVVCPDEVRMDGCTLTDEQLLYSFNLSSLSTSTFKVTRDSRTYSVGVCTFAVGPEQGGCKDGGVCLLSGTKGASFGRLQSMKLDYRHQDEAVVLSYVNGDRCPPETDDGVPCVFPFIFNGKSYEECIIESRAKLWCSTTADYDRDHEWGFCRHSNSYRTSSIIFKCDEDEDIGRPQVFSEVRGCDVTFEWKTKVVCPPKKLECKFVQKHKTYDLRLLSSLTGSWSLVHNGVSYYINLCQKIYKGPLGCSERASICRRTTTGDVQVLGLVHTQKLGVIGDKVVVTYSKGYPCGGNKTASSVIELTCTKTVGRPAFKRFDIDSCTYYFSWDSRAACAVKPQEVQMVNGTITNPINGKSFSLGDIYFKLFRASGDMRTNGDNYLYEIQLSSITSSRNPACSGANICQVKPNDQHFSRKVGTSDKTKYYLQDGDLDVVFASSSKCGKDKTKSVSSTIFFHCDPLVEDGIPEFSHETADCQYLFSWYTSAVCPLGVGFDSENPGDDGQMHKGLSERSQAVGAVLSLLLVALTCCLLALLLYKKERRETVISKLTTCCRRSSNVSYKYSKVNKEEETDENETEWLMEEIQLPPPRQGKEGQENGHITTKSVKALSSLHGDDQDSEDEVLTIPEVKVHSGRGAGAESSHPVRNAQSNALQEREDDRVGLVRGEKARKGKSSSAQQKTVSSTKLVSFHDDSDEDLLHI

- Kd: 15.8 nM
B1: Glycoprotein 68: phosphorylated glycoprotein from GlcNAc-RNase B and oxazoline 8 under wild-type Endo-A catalysis (protein)
chain: KETAAAKFERQHMDSSTSAASSSNYCNQMMKSRNLTKDRCKPVNTFVHESLADVQAVCSQKNVACKNGQTNCYQSYSTMSITDCRETGSSKYPNCAYKTTQANKHIIVACEGNPYVPVHFDASV
modifications: Asn-34 carries GlcNAc extended with M6P tetrasaccharide oxazoline 8 (Man6P-α1,2-Man-α1,3-Man-β1,4-GlcNAc)
